Experimental data published in a protein production outcome set (Wang et al. 2014).

Test: label from the status in PepcDB records

Row | Sequence | protein production
1 | MRFVNPIPFVRDINRSKSFYRDRLGLKILEDFGSFVLFETGFAIHEGRSLEETIWRTSSDAQEAYGRRNMLLYFEHADVDAAFQDIAPHVELIHPLERQAWGQRVFRFYDPDGHAIEVGESLSQSGE | not failed
2 | MRGARKSMGRVSYLRLPHLSGDQLCFVAEDDLWLASLDGPGRAWRLTVDRTKAGPPRFSPDGRHIAYTSWRTLVPEVHLVPVDGGPGRQLTHWGGLDTRVCGWSPPDPDGTTAVLAVASHGEPFSHLTWAYKVTPDGDPGRKLPWGPVTDIQAADLDGERRTLLLTGTPPHEPAAWKRYRGGATGRLWLHGERLLPDLGGHLSAPMFVGGRIAFLSDHEGVGNLYSCAQDGTGLRRHTDHDAFYARNAASDGTRVVYQCAGDLWIVDDLAPGSAPRRLDVRLSGPRAGRRTHQVPAAQHVGGISVDETGRASAVVVRGSLYWLTHRDGPARTIADTPGVRVRLPEMLGESGRIAYVTDAEGEDAVEISYLPRATGGRAARRLASGRLGRVLELVSDPAGDRLAVASHDGRLLILDVAEPDTEVTLALEAVDAGYPPDAGDEDAAGTAARADSAPDAPAEDTDARDIAAGTGTGDIADADAAAGGTVTPGSPGTPATAGGQVTELIRSVNGPVRDLAFSPDGTWLTWSHPGIGRTLRQIKMARIDGPEGTLVVDVTNGRFEDENPVFTRDGRYLAFLSWRGFDPVYDVHTGDLSFPLGCRPYLVPLSSATPSPFALNPEGRPAAGGLDPLEDEPGEGGAVMVEVEGLESRVTPFPVTASKYSALEPVAGGGLVWLRWPISGALGETFANPADPSERPTLEHFNLAKAKKSELVDHLDWFRVSGDGSRLVVLDEGELRAVPASEVGDGDSTTWIDLRRILHEVDPAAEWRQAYDEAGRLIRAYFWDPGMCGIDWDAVLDQYRPLLERVASPDEFADLLREVLGELGTSHAYVVAARRNEGPAHYQRWQGLLGANLACRDGRWLVRRILPGDSSDSKARSPLAGTGIRDGAVLTHVDGRPVDPVLGPSPLLAGAGGTTVELTFAPAEGCQGPSRRVAVVPLVDERPLRYQDWVAKRREVVRELSGGRCGYLHIPDMGGSGWAQFNRDLRMEVSRPALIVDVRGNAGGHISELVIEKLTRTILGWDLTRDAQPVSYTSNAPRGPVVAVADEATSSDGDMITAAFKLLRLGPVVGQRTWGGVVGMTGRHRLGDGSVITVPMNAAWFDAYGWSVENYGVAPDVEALRTPLDWAEGRYPVLDEAVRLALELLETNPPATPPGYEAVPDRSRPPLPPRE | failed
3 | MRGKILIFLHAHLPYVHHPEYDHFLEERWLFEAITETYIPLLMMFDEIEDFRLTMSITPPLMEMLSSRDLQEKYERHMEKLIELANKEVERTKKEHPLKHKMAKFYREHFEKILNVFRSYDGNILEGFKKYQETGKLEIVTCNATHAFLPLYQMYPEVVNAQITVGVKNYAKHMTLHPRGIWLAECGYYQGLDLYLAQNNVEYFFVDSHAFWFADEQPRYGVYRPIMTPSGVFAFARDPESSEQVWSAAVGYPGDPRYREFYRDIGFDREMEYIKDYIDPSGVRINTGIKYHRITSKSLDASQKEYYDIDLAMEAVEEHARDFLHKKESQARRLMDIMGVEPVIVAPFDAELFGHWWFEGVFFLKRFFELVNESKDLKLVTASEVIDTLEEVQIATPADSSWGAGGYYETWLNGTNDWIYRHLHEMIERMIDLSKKYYNSSDPLVERVLNQMLRELFLAQSSDWAFIMTTRTSVQYAENRTKLHIKRFLNLYDQLVSGRIDEEMLRYYEWTDAIFPEINFRVMARDVI | not failed
4 | MRGLSLSPVVLPEVRREAGVELRKARLEDVDAIYWLIRYWAEKGLMLVRSHSHLYENIRDFWVLEDEDGQIVGTVALHVLWRDLAEIRGLAVHPTRQGQGLGRWLVLGAEREARDLGLPRVFAWTLQVNFFRALGYRVTSREALPPKVWSECNACPFYENCREIAVVKEFSPGASGG | failed
5 | MRGSVPSVREIETLLSQLPWRQFQSPRVHLEQYTTPVHLAARIAHHVALCIDEDERRSVQAVDLGTGTGILALALCLAGLNHVLGVDVDSEALELARANAAALWELCPQSVGAVLEFAAVDVQPNSLALAPKSFDVAVLNPPFGTRQRSADIAFLDVACHLSRRFVYSLHKSSTRSYLSRRLERFGCTAQVYARLRFDLPATYVFHRERAVDIDVDLWQIEVKR | not failed
6 | MRGYYDEISFDVNTTAKKMHLFLMRSIASYDVTPEQWSVLEGIEANEPISQKEIALWTKKDTPTVNRIVDVLLRKELIVREISTEDRRISLLSLTDKGRKETTELRDIVEASCEKMFAGVTRTDLEQFTAILKNISTNIE | not failed
7 | MRIAILGGGVAGSTLAYLLSRINYEVTIFDINQHYVKPCGDIVPNIYTPPFNWKETFGIRRFSFYIDGEKIYDVEYRHTKWLVIDKWKWINDMRKSSKVIVTHDNNAKEFDYVIDSRGPYPMDREVVYTTRAIIETEEFDDEAILEFNTRYTGFYWIFPSKENEYNIGAGFLEYKNSKELLNYYLRKRFKNFEVKDIRGAPISIGSVKNKKLRIGEARGLVFPLSGEGIRPSAISAEYAFEAIHKEKDLDGFLNEKLSIIEKRIKIQKMLLDLYRYSSLNLRKTFMRIFFKNEVLIDTYLEDKMDLNGIIESLKSVRANGGIIRKFEEQERLEHHHHHH | failed
8 | MRIDAHHHLWDLSVRDQPWTSDVPALRRTFTAAELRPALERNAIDATVVVQTIAVPQETPELLALTCTDPQVRAVVGWTDLTEPGIADRLAELREQPGGSALVGIRHGIQDETDPQWPARPEVRRGITSVAAAGLVYDLLVRPDQLPSAVRAVRELPDVRFVLDHAGNPVVSPDGLVSWTALLTDLAECPNVTVKLSGLVTRTGGDPAAALRPYADVLFETMGPDRLMYGSDWPVCLLAAEYDEVVAVAESLTEELSADEREAVFGTTAARWYGIPS | failed
9 | MRIETDRLVIRDFEERDAERLYDYLANPPVRCFLDEKINSYDEALRKIRERQGQSDQGDFYAVCLKNAEWLIGEVFWVKEEPDTYSIGWNFNLNYGGKGYATEAVKAAIEELFRGGARRIYAYVEEDNLPSQRLCDRLGMRREGLFLEFISFINNPDGSPRYENTYQYAILKREWLGEGKAT | failed
10 | MRIFKALLKMEFLLTKRQLANLIMAIGMPVAFFLFFSGFMGEGLTKAIEAIYVRNYMITMAGFSSLSFAFFTFPFSMKDDQLSNRMQLLRHSPVPMWQYYLAKIIRILFYYCLAITVVFLTGHILRQVSMPIEQWMQSFLLLLGGATCFIPFGLLVSYFKNTELMSMVANICYMSLAVLGGMWMPITMFPKWLQALSKLTPTYHLTQVILSPFANSFAGFSLIILIGYGIIMLVIAYLLSQKRHSI | failed
11 | MRIKLIIVEGKTDESFFKVLLEKLYGFREAKKLTPEFPIGKWGFRIGEHPLVLEKDNIALVIIHAEGKQRIPKVLKSVLDSVKLGLLNVEEVYVVRDVDEGNDVFEWVLSFLREREVRVDNGAIVTEGVKIYPYGMGNLTLNEPFVKEKKELELSLAYLAKLDGILEKYRGSMRALSQDKGDKLTPKDVMHILSIANDYTGDCLSGLYEKYIGIMIHRNRELLIRFLSEVNLLPLLERMVG | not failed
12 | MRILFVGPPLYGLLYPVLSLAQAFRVNGHEVLIASGGKFAQKAAEAGLVVFDAAPGFDSEAGYRRQEALRKENNIGTKMGNFSFFSEEMTDPLVAFAGQWRPDLIVYPPLGVVGPLIAAKYDIPVVMQTVGFGHTPWHIKGVTKSLSNAYRRHGVSAPPRDLAWIDVTPPSMSILQNDGEPVISMQYVPYNGGAVWEEWWERTPDRKRLLVSLGTVKPMVDGLDLISWVMDSAGEVDAEIILHLPANARSDLRSLPPNVRLVDWLPMGVFLNGADGFIHHGGAGNTLTALHAGIPQIVFGQGADRPVNARAVVERGCGIIPGKSGLTSSMINTFLGNRALREASQEVAAEMAAQPCPTEVAKKLIAMLQHG | failed
13 | MRILLATDGSPQARGAEALAEWLAYKLSAPLTVLFVVDTRLARIPELLDFGALTVPVPVLRTELERALALRGEAVLERVRQSALAAGVAVEAVLEEGVPHEAILRRARAADLLVLGRSGEAHGDGFGGLGSTADRVLRASPVPVLLAPGEPVELEGALLGYDASESAVRALHALAPLARALGLGVRVVSVHEDPARAEAWALEAEAYLRDHGVEASALVLGGDAADHLLRLQGPGDLLALGAPVRRLVFGSTAERVIRNAQGPVLTAR | failed
